In one experiment the target is T1, mouse EpCAM (mouse, UniProt Q99JW5 24-315).
T1 construct: whole, on cells; also called EpCAM on the mouse fibroblast cell line PA6
T1 sequence (looked up): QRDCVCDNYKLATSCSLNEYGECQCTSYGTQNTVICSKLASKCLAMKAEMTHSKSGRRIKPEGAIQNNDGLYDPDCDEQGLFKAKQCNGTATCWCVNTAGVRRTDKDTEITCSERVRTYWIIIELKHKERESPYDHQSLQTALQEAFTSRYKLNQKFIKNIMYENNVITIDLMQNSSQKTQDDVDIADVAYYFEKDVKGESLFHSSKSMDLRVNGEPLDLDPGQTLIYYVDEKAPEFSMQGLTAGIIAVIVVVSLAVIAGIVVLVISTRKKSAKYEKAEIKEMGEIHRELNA
Put plainly: living cell immunostaining of KMC07 co-cultured with mouse PA6 cells. The source says:
Since it was considered that EpCAM was so specially modified with KMC07 that its expression pattern was changed, expression of EpCAM was confirmed using alive or fixed Triton X-100-treated KMC07 by immunostaining. At this time, the anti-KMC07 antibody 1F9D4 and a commercially available EpCAM antibody were used as primary antibodies. When KMC07 was immunostained as living cells, signals were obtained on the cell membrane of KMC07 and the cell membrane of PA6 with the anti-EpCAM antibody (indicated by the arrow in FIG. 12). The staining pattern of KMC07 was similar to that with 1F9D4. Since the anti-EpCAM antibody is known to cross human, mouse and rat EpCAMs, it is considered that the anti-EpCAM antibody also reacted to the mouse fibroblast cell line PA6.

The target in experiment [1] is T2, EpCAM (epithelial cell adhesion molecule) (human, UniProt P16422 24-314).
T2 construct: whole, on cells; also called human EpCAM
T2 sequence (looked up): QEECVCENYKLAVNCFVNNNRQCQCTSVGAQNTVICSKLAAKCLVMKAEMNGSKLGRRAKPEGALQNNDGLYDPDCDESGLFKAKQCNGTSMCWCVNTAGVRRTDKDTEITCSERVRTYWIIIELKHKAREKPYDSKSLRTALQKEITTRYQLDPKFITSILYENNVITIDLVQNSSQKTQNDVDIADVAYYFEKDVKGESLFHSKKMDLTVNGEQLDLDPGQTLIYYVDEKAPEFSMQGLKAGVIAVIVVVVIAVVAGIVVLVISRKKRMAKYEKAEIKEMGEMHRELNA
Put plainly: antibody affinity column on KMC07 whole cell extract, silver staining, mass analysis of the eluted band. From the text:
To an affinity column, 5 clones of the anti-KMC07 antibody were bound and the KMC07 whole cell extract was flown to react the antibody with the antigen. Thereafter, the antibody was eluted and evaluated by silver staining. […] Among them, the broad band of 75 to 100 kDa (mark 4 in the figure) detected with 1B4G4 was similar to that in FIG. 10, and thus considered to be promising as a candidate antigen.

B1: 1F9D4 (antibody III) (antibody, IgG2b, V domains shown)
VH: EVQLVESGGGLVQPGRSLKLSCAASGFTFSDYNMAWVRQAPKKGLEWVATINYDGISTYYRDSVKGRFTISRDNAKSTLYLQMDSLRSEDTATYYCARHSYVYYALGVPFAYWGQGTLVTVSS
VL: DIQMTQSPSLLSASVGDRVTINCKASQNINKYLNWYQQKLGEAPKLLIYNTNSLQTGIPSRFSGSGSGTDYTLTISSLQPEDFGTYFCFQHNSWPLTFGSGTKLEIK
notes: also called IF9D4; anti-KMC07 antibody 1F9D4
On to B1, for which the values for the binding result (with mouse EpCAM; in experiment [1]) were “no binding” and “binds”, respectively.

For the origin of these results see US20240190992A1 (UNIVERSITY PUBLIC CORPORATION OSAKA, published 2024).
